From patent publication US20050042205A1

Biological target: rat luteal LH/CG receptor (LH/CG-R) expressed from the cloned cDNA (expression vector pCLHR) in transiently transfected human kidney 293 cells (rat) (UniProt P16235)

EC50 of cAMP production: 0.04 to 0.08 nM
Substance: human choriogonadotropin, highly purified (CR-123; 12,780 IU/mg) (from UniProt P01215) (ligand)
